Assay results published in publication PMC3741918 (FEBS Open Bio, 2013).

T1: human frataxin variant hFXN56–210 (human, UniProt Q16595 56-210)
T1 sequence (looked up): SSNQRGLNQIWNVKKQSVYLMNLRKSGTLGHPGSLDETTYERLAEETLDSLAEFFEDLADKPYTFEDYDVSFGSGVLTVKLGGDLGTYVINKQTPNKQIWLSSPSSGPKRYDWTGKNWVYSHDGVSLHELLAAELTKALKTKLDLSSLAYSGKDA


How the values were obtained:
[1] = target: human frataxin variant hFXN56–210 (human) (UniProt Q16595); test: SEC
[2] = target: T1, human frataxin variant hFXN56–210; test: aggregation assay

| Molecule | percent of the protein in the oligomeric state [1] [%] | binding result [2] |
| --- | --- | --- |
| human frataxin variant hFXN56–210 (from UniProt Q16595 56-210) (domain or fragment) | 60 |  |
| SSNQRGLNQIWNVKKQSVYLMNLRKS [peptide hFXN56–81] |  | binds |
